Experimental data from publication PMC4117764.

Molecular target: GST-tagged p21C-terminal peptide
Assay: pull-down

For “proliferating cell nuclear antigen (PCNA), endogenous (from UniProt P12004 1-261) (natural protein)”, the extent of PCNA depletion was > 95%.
